Consider two variants from IntAct's records for PubMed 17277084.

B1: Serine/threonine-protein kinase PBS1 (Arabidopsis thaliana (Mouse-ear cress)), Q9FE20 (parent)
chain: MGCFSCFDSSDDEKLNPVDESNHGQKKQSQPTVSNNISGLPSGGEKLSSKTNGGSKRELLLPRDGLGQIAAHTFAFRELAAATMNFHPDTFLGEGGFGRVYKGRLDSTGQVVAVKQLDRNGLQGNREFLVEVLMLSLLHHPNLVNLIGYCADGDQRLLVYEFMPLGSLEDHLHDLPPDKEALDWNMRMKIAAGAAKGLEFLHDKANPPVIYRDFKSSNILLDEGFHPKLSDFGLAKLGPTGDKSHVSTRVMGTYGYCAPEYAMTGQLTVKSDVYSFGVVFLELITGRKAIDSEMPHGEQNLVAWARPLFNDRRKFIKLADPRLKGRFPTRALYQALAVASMCIQEQAATRPLIADVVTALSYLANQAYDPSKDDSRRNRDERGARLITRNDDGGGSGSKFDLEGSEKEDSPRETARILNRDINRERAVAEAKMWGESLREKRRQSEQGTSESNSTG
partner: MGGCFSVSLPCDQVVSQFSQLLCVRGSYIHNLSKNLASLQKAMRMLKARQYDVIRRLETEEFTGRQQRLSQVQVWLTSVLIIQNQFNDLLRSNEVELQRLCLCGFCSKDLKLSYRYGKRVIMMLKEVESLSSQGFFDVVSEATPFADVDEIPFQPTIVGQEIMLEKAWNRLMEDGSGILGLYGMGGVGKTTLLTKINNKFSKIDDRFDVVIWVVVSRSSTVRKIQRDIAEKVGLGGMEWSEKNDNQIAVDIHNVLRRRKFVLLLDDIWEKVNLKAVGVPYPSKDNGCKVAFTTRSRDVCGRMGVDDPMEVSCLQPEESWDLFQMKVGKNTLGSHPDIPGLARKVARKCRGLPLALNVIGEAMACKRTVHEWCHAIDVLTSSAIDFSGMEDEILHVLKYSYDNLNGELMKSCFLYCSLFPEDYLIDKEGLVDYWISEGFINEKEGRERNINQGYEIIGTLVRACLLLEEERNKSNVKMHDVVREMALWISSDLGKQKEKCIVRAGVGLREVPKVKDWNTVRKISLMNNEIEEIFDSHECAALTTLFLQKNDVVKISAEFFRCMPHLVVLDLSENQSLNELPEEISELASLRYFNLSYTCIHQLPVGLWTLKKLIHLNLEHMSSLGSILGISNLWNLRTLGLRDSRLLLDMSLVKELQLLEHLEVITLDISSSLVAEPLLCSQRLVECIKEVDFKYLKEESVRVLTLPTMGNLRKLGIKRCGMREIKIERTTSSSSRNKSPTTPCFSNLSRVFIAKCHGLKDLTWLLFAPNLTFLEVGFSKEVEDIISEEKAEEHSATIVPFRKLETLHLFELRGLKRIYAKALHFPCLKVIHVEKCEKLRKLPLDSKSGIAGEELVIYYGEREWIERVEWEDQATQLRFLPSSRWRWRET

The test covers variants of B1. The note with it: with rps5_arath RPS5, O64973.
As to MGCFSCFDSSDDEKLNPVDESNHGQKKQSQPTVSNNISGLPSGGEKLSSKTNGGSKRELLLPRDGLGQIAAHTFAFRELAAATMNFHPDTFLGEGGFGRVYKGRLDSTGQVVAVNQLDRNGLQGNREFLVEVLMLSLLHHPNLVNLIGYCADGDQRLLVYEFMPLGSLEDHLHDLPPDKEALDWNMRMKIAAGAAKGLEFLHDKANPPVIYRDFKSSNILLDEGFHPKLSDFGLAKLGPTGDKSHVSTRVMGTYGYCAPEYAMTGQLTVKSDVYSFGVVFLELITGRKAIDSEMPHGEQNLVAWARPLFNDRRKFIKLADPRLKGRFPTRALYQALAVASMCIQEQAATRPLIADVVTALSYLANQAYDPSKDDSRRNRDERGARLITRNDDGGGSGSKFDLEGSEKEDSPRETARILNRDINRERAVAEAKMWGESLREKRRQSEQGTSESNSTG [K115N], the “effect of a mutation on the interaction” value is reported as “disrupting interaction strength”.

On to MGCFSCFDSSDDEKLNPVDESNHGQKKQSQPTVSNNISGLPSGGEKLSSKTNGGSKRELLLPRDGLGQIAAHTFAFRELAAATMNFHPDTFLGEGGFGRVYKGRLDSTGQVVAVKQLDRNGLQGNREFLVEVLMLSLLHHPNLVNLIGYCADGDQRLLVYEFMPLGSLEDHLHDLPPDKEALDWNMRMKIAAGAAKGLEFLHDKANPPVIYRDFKSSNILLDEGFHPKLSDFGLAKLGPTGDKSHVSTRVMRTYGYCAPEYAMTGQLTVKSDVYSFGVVFLELITGRKAIDSEMPHGEQNLVAWARPLFNDRRKFIKLADPRLKGRFPTRALYQALAVASMCIQEQAATRPLIADVVTALSYLANQAYDPSKDDSRRNRDERGARLITRNDDGGGSGSKFDLEGSEKEDSPRETARILNRDINRERAVAEAKMWGESLREKRRQSEQGTSESNSTG [G252R], for which the “effect of a mutation on the interaction” value is reported as “disrupting interaction strength”.
